Source: the supplement of paper PMC12042874
± gives the uncertainty stated by the source.

Experiment: amyloid nucleation score (Sup35N fusion, yeast selection) (log enrichment); library NNK2; higher = more nucleation; inactive = no reads after selection
Outline: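 Random libraries were run with three technical output replicates. In each, psi-negative yeast expressing Sup35N fused to peptides of 20 random codons were induced 24 hours with 100 μM copper sulfate and grown 7 days at 30°C on medium lacking adenine and uracil, and input and output plasmid inserts were Illumina-sequenced. The nucleation score is the DiMSum log enrichment of output over input reads, centred on the mode score of non-aggregating sequences, and sequences under 100 input reads were excluded.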

Substance | amyloid nucleation score
VWLGVTSSPIIMSKNMSNVV | 0.404 ± 0.36
VWLSFRVYLVMTSVLVILNC | 1.13 ± 0.11
VWLTMKVAILPCSQRIEKMV | 1.47 ± 0.38
VWLYKSLIINFDSKWRLS | 6.268 ± 0.034
VWPQCYLSLVF | -0.082 ± 0.49
VWTLYYHHIGSAFSTCNRLF | 4.5 ± 0.062
VWTSIYDFSLWADYGQK | -1.58 ± 1.1
VWVRIQMWYDIMSSASQLYR | 0.446 ± 0.33
VWVRMRKAVGAVHYRDLRSS | 8.893 ± 0.075
VWVWCFR | 8.331 ± 0.042
VWWFPRLPIPKESVIINGLS | inactive
VWYSDDWSWWGARRLCKNRR | 0.236 ± 1.1
VYDQIYGRLANRLVHNKWRR | -0.341 ± 0.55
VYGLVL | 0.011 ± 0.45
VYKFEKESLLTLSHIHKVAS | -0.012 ± 1.1
VYLRMSFYYGKRP | 4.12 ± 0.044
VYLSSLDSRMRLSTCFRE | -0.19 ± 0.35
VYNTFLREFHS | 1.99 ± 0.13
VYPFSLSVAYVNRLLYYTVQ | 2.14 ± 0.094
VYQYWYIAISLRGRPGQCRL | 4.06 ± 0.05
VYRSRAVHATSLGSERFNTD | 5.17 ± 0.1
VYSLYNDRYYC | -0.406 ± 0.31

Substance | amyloid nucleation score
VYVFYVSIKVAVFTLTM | 3.92 ± 0.041
VYYASDNWYLAYRWEGRRFN | 0.821 ± 0.27
VYYTVVCGDDRRCIKMCKFC | 5.327 ± 0.032
VYYVWRNCLSDCLYYILTYF | -2.05 ± 0.78
WAGRCDHK | 0.227 ± 0.25
WAKCRLTIMTKWSLLCGGLG | 1.43 ± 0.34
WAPFMGVSKSTQTARTGMVM | -0.146 ± 0.61
WARCHVLA | -0.292 ± 0.55
WASFTSACRRLLSPCTPRSG | 5.22 ± 0.1
WASIQVDRSLGCNIFWLLQ | 3.73 ± 0.11
WCGYMNSSIKSRYSTYTFRS | 2.13 ± 0.088
WCIFL | 4.87 ± 0.087
WCLMQSFDGLSDME | 0.561 ± 0.62
WCRAWGDFIMVKSLGLKCIA | -0.1 ± 0.49
WCTIHYDLMLVVRTNSSRSI | 1.08 ± 0.18
WDCAWVLGLVAEGRLT | 6.09 ± 0.039
WDNHYRIKYCG | inactive
WDPQCGSLPFFLLNAEAFET | inactive
WDQCLMLMCPNE | -0.291 ± 0.64
WDSRDLMC | 0.344 ± 0.39
WDTLARYSGIQLVFE | -0.974 ± 0.55
WDVIELF | -1.4 ± 1.1

Substance | amyloid nucleation score
WEASCVNPH | -0.191 ± 0.65
WECYLFFCDIVGVGVHWRSS | -0.824 ± 0.42
WFCVVVMFGRRVDNLDKLVF | -1.33 ± 0.54
WFIGS | inactive
WFIRIAIMARSFCIIALVPR | -1.22 ± 0.47
WFIWNVENR | 7.15 ± 0.08
WFMRDMEYFPDGLGDYG | inactive
WFMSIMSKYCRVSF | -0.149 ± 0.79
WFMSKAYVTSCALFSRVIHT | 0.914 ± 0.43
WFSDIKSPASLLVSVVVVM | 0.272 ± 0.57
WFSRFSFCRKHYLTVNNWGL | -0.566 ± 0.49
WGCNSNELSCRLYVVNYSGW | -0.251 ± 0.56
WGCWTVRSTT | 0.92 ± 0.46
WGDIDF | -0.385 ± 0.64
WGDRLSVKFMCVDALGRVNL | 0.019 ± 0.56
WGFIAVDGRPIVASLRYSMR | 3.51 ± 0.084
WGHLVWGNTRCLGG | 0.016 ± 1.1
WGNGLSFTAACLLVLLKRNS | 2.2 ± 0.16
WHCLLGLNYLFGYVSYSTSW | 4.99 ± 0.098
WHGRCWTSAKLAYRTRKTMC | 1.86 ± 0.17
WHGVDVIVRLMVAHPLGRTS | 4.36 ± 0.11
WHMLHRVDKAISFSLSCCGR | 7.81 ± 0.084

Substance | amyloid nucleation score
WHSTVSLWSHPFPHKATKEP | 0.256 ± 0.42
WHWISAYCTFICRKVLKEMP | 0.478 ± 0.4
WIFSPGLMDFVEHDNLEWIA | 0.67 ± 0.44
WIKLAFDWKQF | -1.18 ± 0.55
WIWVMWNKLCDSPDVWLANW | 0.816 ± 0.51
WIYSFTMFATWTNVT | 0.092 ± 0.79
WKSLGNSAVVIRLAS | -0.453 ± 1.1
WKTWSPKYWGSFVR | -0.283 ± 0.46
WKVRISVFMLEAL | 2.77 ± 0.075
WLFSVSISGREDMMWSGLLE | 0.061 ± 0.4
WLGIAAM | 1.15 ± 0.43
WLIKKASRYSN | -0.608 ± 1.1
WLLFMS | -0.353 ± 0.54
WLLILLDISTSDFLQCWIGM | -0.037 ± 0.65
WLMCMPILRSCWMSSG | 0.749 ± 0.22
WLMKINRT | 0.129 ± 0.26
WLQSETIHDVRSLRWVSIKC | 0.043 ± 0.74
WLYSIVCCDRKQSRSGMCDL | 4.96 ± 0.069
WMIIVA | 0.582 ± 0.54
